We go through 39 variants from the RNAGym collection of RNA variant scans (doi:10.7554/elife.80360).

Sequences and labels used below:
B1: CPEB3 Ribozyme (parent)
chain: GGGGGCCACAGCAGAAGCGUUCACGUCGCGGCCCCUGUCAGAUUCUGGUGAAUCUGCGAAUUCUGCUGU

This series covers variants of B1. As to the kind of experiment: self-cleavage, relative activity (ratio to wild type); higher = more cleavage; co-transcriptional.
As for GGGGGCCACACCAGAAGCGUUCACUUCGCGGCCCCUGUCAGAUUCUGGUGAAUCUGCGAAUUCUGCUGU [G11C G25U], the self-cleavage amounted to 0.0946.
To GGGGGCCACACCAGAAGCGUUCACGUCGCGGCCCCUGUCAGAUUCUGGUGAAUCUGCGAAUUCUACUGU [G11C G65A] belongs 0.559; to GGGGGCCACACCAGAAGCGUUCACGUGGCGGCCCCUGUCAGAUUCUGGUGAAUCUGCGAAUUCUGCUGU [G11C C27G], 0.104.
Then GGGGGCCACACCAGAAGCGUUCACGUCGCGGCCCCUGUCAGAUUCUGGUGAAUCUGCGAAUUCUGCUGA [G11C U69A], with 0.921.
Then GGGGGCCACACCAGAAGCGUUCACGUCGCGGCCCCUGUCAGAUUCUGGUGAAUCUGCGAAUUCUGCUGC [G11C U69C], with 1.01.
In the case of GGGGGCCACACCAGAAGCGUUCACGUCGCGGCCCCUGUCAGAUUCUGGUGAAUCUGCGAAUUCUGCUGG [G11C U69G], the self-cleavage worked out at 0.97.
To GGGGGCCACACCAGAAGCGUUCACGUCGCGGCCCCUGUCAGAUUCUGGCGAAUCUGCGAAUUCUGCUGU [G11C U49C] belongs 0.803.
Then GGGGGCCACACCAGAAGCGUUCACGUCGCGGCCCCUGUCAGAUUCUGGGGAAUCUGCGAAUUCUGCUGU [G11C U49G], with 0.866.
Then GGGGGCCACACCAGAAGCGUUCACGUCGCGGCCCCUGUCAGAUUCUGGUGAAUCUGCGAAUUCUGCUUU [G11C G68U], with 0.881.
For the variant GGGGGCCACACCAGAAGCGUUCACGUCGCGGCCCCUGUCACAUUCUGGUGAAUCUGCGAAUUCUGCUGU [G11C G41C], the self-cleavage amounted to 0.257.
Then GGGGGCCACACCAGAAGCGUUCACGUCGCGGCCCCUGUCAUAUUCUGGUGAAUCUGCGAAUUCUGCUGU [G11C G41U], with 0.238; and GGGGGCCACAUCAGAAGCGUUCACGUCGCGGCCCCUGUCAGAUUCUGGUGAAUCUGCGAUUUCUGCUGU [G11U A60U], with 0.281; and GGGGGCCACAUCAGAAGCGUUCACGUCGCGGCCCCUGUCAGAUUCUGGUGAAUCUGCGAGUUCUGCUGU [G11U A60G], with 0.497.
Take GGGGGCCACAUCAGAAGCGUUCACGUCGCGGCCCCUGUCAGAUUCUGGUGAAUCUGCGACUUCUGCUGU [G11U A60C]: the self-cleavage was found to be 0.234.
Then GGGGGCCACACCAGAAGCGUUGACGUCGCGGCCCCUGUCAGAUUCUGGUGAAUCUGCGAAUUCUGCUGU [G11C C22G], with 0.18; and GGGGGCCACACCAGAAGCGUUCACGUCGCGGCCCCUGUCAGAGUCUGGUGAAUCUGCGAAUUCUGCUGU [G11C U43G], with 0.279; and GGGGGCCACACCAGAUGCGUUCACGUCGCGGCCCCUGUCAGAUUCUGGUGAAUCUGCGAAUUCUGCUGU [G11C A16U], with 0.49.
Regarding GGGGGCCACACCAGACGCGUUCACGUCGCGGCCCCUGUCAGAUUCUGGUGAAUCUGCGAAUUCUGCUGU [G11C A16C], the self-cleavage worked out at 0.276.
To GGGGGCCACACCAGAAGCAUUCACGUCGCGGCCCCUGUCAGAUUCUGGUGAAUCUGCGAAUUCUGCUGU [G11C G19A] belongs 0.0742; to GGGGGCCACACCAGAAGCUUUCACGUCGCGGCCCCUGUCAGAUUCUGGUGAAUCUGCGAAUUCUGCUGU [G11C G19U], 0.158; to GGGGGCCACACCAGAAGCGGUCACGUCGCGGCCCCUGUCAGAUUCUGGUGAAUCUGCGAAUUCUGCUGU [G11C U20G], 0.169.
Consider GGGGGCCACACCAGAAGCGUUCACGUCGCGGCCCCUGUUAGAUUCUGGUGAAUCUGCGAAUUCUGCUGU [G11C C39U], for which the self-cleavage came out at 0.399.
Then GGGGGCCACACCAGAAGCGUUCACGUCGCGGCCCCUGUCAGAUUCUGUUGAAUCUGCGAAUUCUGCUGU [G11C G48U], with 0.912; and GGGGGCCACACCAGAAGCGUUCACGUCGCGGCACCUGUCAGAUUCUGGUGAAUCUGCGAAUUCUGCUGU [G11C C33A], with 0.547; and GGGGGCCACACCAGAAGCGUUCACGUCGCGGCUCCUGUCAGAUUCUGGUGAAUCUGCGAAUUCUGCUGU [G11C C33U], with 0.827.
As for GGGGGCCACAUCAGAAGCGUUCACGUCGCGGCCCCUGUCAGAUUCUGGUGCAUCUGCGAAUUCUGCUGU [G11U A51C], the self-cleavage was found to be 0.669.
Regarding GGGGGCCACACCAGAAGCGUUCACGUCGCGGCCCCUGUCAGAUUCUGGUGAAUCUGCGAACUCUGCUGU [G11C U61C], the self-cleavage was 0.203.
On to GGGGGCCACACCAGAAGCGUUCACGUCGCGGCCCCUGUCAGAUUCUGGUGAAUAUGCGAAUUCUGCUGU [G11C C54A], for which the self-cleavage was 0.252.
To GGGGGCCACACCAGAAGCGUUCACGUCGCGGCCCCUGUCAGCUUCUGGUGAAUCUGCGAAUUCUGCUGU [G11C A42C] belongs 0.151; to GGGGGCCACACCAGAAGCGUUCACGUCGCGGCCCCUGUCAGAUUCUGGUGAAUCUCCGAAUUCUGCUGU [G11C G56C], 0.176; to GGGGGCCACACCAGAAGCGUUCACGUCGCGGCCCCUGUCAGAUUCUGGUGAAUCGGCGAAUUCUGCUGU [G11C U55G], 0.165.
For GGGGGCCACACCAGAAGCGUUCACGUCGCGGCCCCUGUCAGAUUCUGGUGAAUCAGCGAAUUCUGCUGU [G11C U55A], the self-cleavage was 0.271.
With GGGGGCCACACCAGAAGCGUUCACGUCGCGCCCCCUGUCAGAUUCUGGUGAAUCUGCGAAUUCUGCUGU [G11C G31C], the self-cleavage was 0.167.
Then GGGGGCCACACCAGAAGCGUUCACGUCGCGUCCCCUGUCAGAUUCUGGUGAAUCUGCGAAUUCUGCUGU [G11C G31U], with 0.536; and GGGGGCCACAUCAGAAGCGUUCACGUCGCGGCCCCUGUCUGAUUCUGGUGAAUCUGCGAAUUCUGCUGU [G11U A40U], with 0.256; and GGGGGCCACACCAGAAGCGUUCACGUCGCGGCCCCUGUCAGAUUCUGGUGAAUCUGCGAAUUUUGCUGU [G11C C63U], with 0.416.
For the variant GGGGGCCACAUCAGAAGCGUUCACGUCGCGGCCCCUGUCAGUUUCUGGUGAAUCUGCGAAUUCUGCUGU [G11U A42U], the self-cleavage was determined as 0.581.
To GGGGGCCACAUCAGCAGCGUUCACGUCGCGGCCCCUGUCAGAUUCUGGUGAAUCUGCGAAUUCUGCUGU [G11U A15C] belongs 0.531.
To GGGGGCCACAUCAGGAGCGUUCACGUCGCGGCCCCUGUCAGAUUCUGGUGAAUCUGCGAAUUCUGCUGU [G11U A15G] belongs 0.779.
